Results reported in patent US20050260153, “Facilitation of iontophoresis using charged moieties” (published 2005).

Experiments:
Details in all cases: tags: 125I-labelled; chain copies: 2
VEGF165 [1] = target: T1, VEGF165 (UniProt P15692-4 P15692-4:27-191); experiment: competition; 3'-PEG more effective than non-enhanced aptamer in inhibiting VEGF/Flt-1 binding; values in figure
VEGF165 [2] = target: T1, VEGF165; experiment: competition; dextran conjugates inhibit VEGF/Flt-1 binding better than non-enhanced aptamer; dextran alone no effect; values in figure
VEGF165 [3] = target: T1, VEGF165; experiment: competition; VEGF/Flt-1 inhibition more effective than 10K linear; values in figure
VEGF165 [4] = target: T1, VEGF165; experiment: competition; VEGF/Flt-1 inhibition less effective than 30K linear; values in figure
VEGF165 [5] = target: T1, VEGF165; experiment: competition; CMC conjugates inhibit VEGF/Flt-1 binding better than non-enhanced aptamer; CMC alone no effect; values in figure
VEGF165 [6] = target: T1, VEGF165; experiment: competition; VEGF/Flt-1 inhibition less effective than 20K/20K branched; values in figure
VEGF165 [7] = target: T1, VEGF165; experiment: competition; inhibits 125I-VEGF165 binding to Flt-1/Fc; much more effective than EYE002; PBS, 1 mM CaCl2, 1 mM MgCl2, 0.01% HSA, pH 7.4, 37 C; IC50 only in figure
Method: Each well is then washed with 300 μL of binding buffer (PBS with 1 mM calcium chloride, 1 mM magnesium chloride, 0.01% HSA, PH 7.4) at room temperature twice. For KDR/Fc, 0.25 picomole (85 ng) of the chimeric receptor in 100 μL of binding buffer is added into the first 11 wells, whereas the twelfth well receive 0.5 picomole (118 ng) of human ICAM-1/Fc chimera protein as the background control well. For Flt-1/Fc, 0.125 picomole (30.8 ng) of the chimeric receptor in 100 μL of binding buffer each is added into the first 11 wells, whereas the background control well (#12) receive 0.5 picomole (118 ng) of human ICAM-1/Fc chimera protein. For neuropilin-1/Fc, 0.2 picomole (48 ng) of the chimeric receptor in 100 μl of binding buffer is added to all 12 wells. The chimeric receptors and human ICAM-1/Fc protein are captured onto the well by binding to the immobilized anti-human IgG₁ Fc fragment-specific antibody in each well at room temperature for 2 to 3 hour. […]
A set of 10 five-fold dilutions of the Pegaptanib (tube #1 to #10) ranging from 1 μM (or 2 μM) to 0.512 picomolar (pM) (or 1.024 pM) are each mixed with about 0.01 μCi of ¹²⁵I-VEGF₁₆₅ in binding buffer (PBS with 1 mM calcium chloride, 1 mM Magnesium Chloride, 0.01% HSA, pH 7.4) in non-stick 1.5 mL microfuge tubes, in a total 100 μL final volume each. […] The radioactivity of each well is determined by scintillation counting.

T1 sequence (P15692 other isoform, or with tags, fused parts or gaps): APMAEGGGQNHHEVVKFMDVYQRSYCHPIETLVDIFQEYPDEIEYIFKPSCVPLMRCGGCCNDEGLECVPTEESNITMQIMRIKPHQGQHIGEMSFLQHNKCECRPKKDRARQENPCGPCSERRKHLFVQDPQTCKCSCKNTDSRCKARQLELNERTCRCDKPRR

B1: 3'-PEG VEGF aptamer conjugate (ssRNA)
RNA: CGGAAUCAGUGAAUGCUUAUACAUCCG
modifications: 2'-F on C and U, 2'-OMe on G and A except unmodified ribo A at positions 4 and 5; 3'-PEG
- binding result (VEGF165 [1]): binds

B2: 5'-dextran VEGF aptamer conjugate (ssRNA)
RNA: CGGAAUCAGUGAAUGCUUAUACAUCCG
modifications: 2'-F on C and U, 2'-OMe on G and A except unmodified ribo A at positions 4 and 5; 5'-dextran (e.g. 40 kDa)
- binding result (VEGF165 [2]): binds

B3: 30K linear PEG VEGF aptamer conjugate (ssRNA)
RNA: CGGAAUCAGUGAAUGCUUAUACAUCCG
modifications: 2'-F on C and U, 2'-OMe on G and A except unmodified ribo A at positions 4 and 5; PEG 30K linear
- binding result (VEGF165 [3]): binds

B4: 10K linear PEG VEGF aptamer conjugate (ssRNA)
RNA: CGGAAUCAGUGAAUGCUUAUACAUCCG
modifications: 2'-F on C and U, 2'-OMe on G and A except unmodified ribo A at positions 4 and 5; PEG 10K linear
- binding result (VEGF165 [4]): binds

B5: 5'-CMC VEGF aptamer conjugate (ssRNA)
RNA: CGGAAUCAGUGAAUGCUUAUACAUCCG
modifications: 2'-F on C and U, 2'-OMe on G and A except unmodified ribo A at positions 4 and 5; 5'-carboxymethyl cellulose (about 50 kDa)
- binding result (VEGF165 [5]): binds

B6: 5K/5K branched PEG VEGF aptamer conjugate (ssRNA)
RNA: CGGAAUCAGUGAAUGCUUAUACAUCCG
modifications: 2'-F on C and U, 2'-OMe on G and A except unmodified ribo A at positions 4 and 5; PEG 5K/5K branched
- binding result (VEGF165 [6]): binds

B7: Pegaptanib (EYE001, Macugen, MacI; 20K/20K branched 5'-PEG VEGF aptamer) (ssRNA)
RNA: CGGAAUCAGUGAAUGCUUAUACAUCCG
modifications: 2'-F on C and U, 2'-OMe on G and A except unmodified ribo A at positions 4 and 5; 5'-PEG 40 kDa branched via amino linker; 3'-3' dT cap
- binding result (VEGF165 [7]): binds
